CN112063765A

Tests used:
[1] = target: H1N1特异性的表位肽 (SEQ ID NO:4) (Influenza A virus H1N1); test: indirect ELISA, titre of purified ascites antibody
[2] = target: H1N1特异性的表位肽 (SEQ ID NO:4) (Influenza A virus H1N1)

B1: 3E6单克隆抗体 (antibody, V domains shown)
VH: EVQLEESGTELARPGASVKLALKASGYIFSSYSGQWIKQRPGAGLELIGYPYPGWIDTRYTQKLTGKATLTADKSSSTLYMQLSSLASEDSAVAYCAGSYFSSDAWGLGTTLAVSS
VL: DIVLTQSPALMAASAGEKVTITCAVSQSIQSGYLAWYQQKSGISPKPWIYDTSNQAGGVPARFSGAGSGTSYSLTITSMEAEDAATYYCAQGTTSPLSFGAGTKLELK
- OD492 at dilution 1:1000 [1]: 4.91 OD492
- OD492 at dilution 1:10000 [1]: 1.89 OD492
- OD492 at dilution 1:100000 [1]: 0.455 OD492
- OD492 at dilution 1:1000000 [1]: 0.121 OD492
- OD492 at dilution 1:10000000 [1]: 0.0632 OD492
- Kd [2]: 480 pM
